{"source": "patent US20190062727A1", "about": "(University of Texas, published 2019)", "binders": {"B1": {"name": "p53 (TP53), endogenous protein of mouse embryonic fibroblasts and mouse liver (other, UniProt P02340 1-390, looked up)", "chain": "MTAMEESQSDISLELPLSQETFSGLWKLLPPEDILPSPHCMDDLLLPQDVEEFFEGPSEALRVSGAPAAQDPVTETPGPVAPAPATPWPLSSFVPSQKTYQGNYGFHLGFLQSGTAKSVMCTYSPPLNKLFCQLAKTCPVQLWVSATPPAGSRVRAMAIYKKSQHMTEVVRRCPHHERCSDGDGLAPPQHLIRVEGNLYPEYLEDRQTFRHSVVVPYEPPEAGSEYTTIHYKYMCNSSCMGGMNRRPILTIITLEDSSGNLLGRDSFEVRVCACPGRDRRTEEENFRKKEVLCPELPPGSAKRALPTCTSASPPQKKKPLDGEYFTLKIRGRKRFEMFRELNEALELKDAHATEESGDSRAHSSYLKTKKGQSTSRHKKTMVKKVGPDSD", "notes": "Endogenous protein, detected with a mouse monoclonal anti-p53 antibody from Cell Signaling Technology"}}, "molecular_target": "T1, Rlip (RALBP1, RLIP76), endogenous protein of mouse embryonic fibroblasts and mouse liver (mouse, UniProt Q62172 2-648)", "T1 construct": "Endogenous protein, detected with a rabbit monoclonal anti-Rlip antibody from Abcam", "T1 sequence (looked up)": "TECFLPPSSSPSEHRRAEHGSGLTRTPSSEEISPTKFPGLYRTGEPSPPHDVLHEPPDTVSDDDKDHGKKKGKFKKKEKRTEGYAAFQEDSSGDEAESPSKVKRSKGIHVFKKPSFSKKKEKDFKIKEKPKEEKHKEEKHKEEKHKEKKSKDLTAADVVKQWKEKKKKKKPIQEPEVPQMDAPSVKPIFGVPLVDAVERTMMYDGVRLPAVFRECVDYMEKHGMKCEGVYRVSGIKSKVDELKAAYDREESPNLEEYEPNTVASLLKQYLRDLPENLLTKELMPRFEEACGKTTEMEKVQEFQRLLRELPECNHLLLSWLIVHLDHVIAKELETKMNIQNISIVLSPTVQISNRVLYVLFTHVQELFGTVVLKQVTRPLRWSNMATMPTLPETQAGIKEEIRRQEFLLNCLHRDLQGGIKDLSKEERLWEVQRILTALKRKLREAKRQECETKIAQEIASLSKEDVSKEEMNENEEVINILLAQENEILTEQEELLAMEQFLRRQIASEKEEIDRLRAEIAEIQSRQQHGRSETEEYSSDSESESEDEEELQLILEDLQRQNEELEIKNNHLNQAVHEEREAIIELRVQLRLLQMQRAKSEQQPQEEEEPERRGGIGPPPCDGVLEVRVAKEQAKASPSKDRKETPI", "experiment": "co-immunoprecipitation from whole-cell homogenates of wt, p53+/- and p53-/- MEFs", "description": "Binding interactions of HSF1, Rlip and p53 in wt, p53^{-/-} MEFs without or with Rlip depletion using R508 were studied by co-immunoprecipitation using protein A/G PLUS-Agarose immunoprecipitation reagent sc-2003 from Santa Cruz Biotechnology (Columbus, Ohio) according to the manufacture's protocol using whole-cell homogenates of wild-type, p53^{-/-} or p53^{+/-} MEFs. Primary anti-HSF1 rabbit monoclonal antibody (D3L8I) and anti-p53 mouse monoclonal antibody was from Cell Signaling Technology (Danvers, Mass.), and rabbit monoclonal anti-Rlip antibody was from Abcam (Cambridge, Mass.). The specificity of primary antibodies was tested using MEFs from either p53^{-/-} or Rlip^{-/-} MEFs. The corresponding probes of anti-rabbit PLUS and anti-mouse MINUS were provided in the kit and used per the manufacturer's instructions. wt, p53^{-/-} and […]. […] Slides were visualized by fluorescence microscopy using an Olympus BX50 microscope, and photomicrographs were taken using a 40× objective.\nThe 4-hydroxynonenal (4HNE) and8-OH-deoxyguanosine (8OHdG) levels were measured in liver homogenate using Oxiselect kits from Cell Biolabs, San Diego, Calif. by procedures described in Methods and the results are shown in FIG. 2A and FIG. 2B, respectively. […]"}
{"binder": "B1", "values": [{"measurement": "binding result", "result": "binds"}]}
